The text below walks through data of patent publication US20210220432A1, “Application of Polypeptide in Preparation of Composition for Preventing and Treating Human Papillomavirus Infection” (GENLOCI BIOTECHNOLOGIES INC., priority 2018, published 2021).

For assay [1], the target named is T1, HPV-16 L1 protein (Human papillomavirus type 16, UniProt P03101).
T1 construct: purchased Abcam ab119880
Description: Biomolecular interaction analysis (SPR, Biacore 3000) of the polypeptide with HPV-16 L1 protein. In kind it is binding. From the text: Biomolecular interaction analysis (BIA) is a biosensing analysis technology based on a physical optical phenomenon known as surface plasmon resonance (SPR). BIA can provide real-time observation of the interaction between biomolecules, through which, the binding specificity of two molecules can be observed, how strong the binding of the two molecules is can be known, and how many cooperators and participants there are in the binding process of biomolecules can be known.
In this experiment, BIA technology is used to observe whether there is an interaction between the polypeptide of the present invention and the HPV L1 protein, so as to explore the mechanism of inhibiting HPV virus by the polypeptide.
3. […]
(5) The coupling effect is automatically calculated by the software. In the experiment, the experimental channel is finally coupled with about 5300 RU of HPV-16 L1 Protein, where the unit RU is the unit of coupling quantity defined by the system. […]
(8) The program is designed according to the steps of equilibration, testing, equilibration, and regeneration, and the polypeptide solution of each concentration was detected. […] During the detection, the sample passes through the blank channel and the experimental channel in turn, and the data to be detected is the resultant difference of “experimental channel response value minus blank channel response value”. […]
A general note: In SPR one partner is held on a chip, and binding of the other changes the refractive index at the surface.

Assay [2] deals with HPV. The conditions noted are these: literature study; HD6 at the highest cytotoxic dose; cited from earlier work.
Assay [3] deals with T2, HPV-16 L1 protein (Cat. No. ab119880, Abcam), recombinantly expressed (human papillomavirus type 16), P03101.
T2 chain: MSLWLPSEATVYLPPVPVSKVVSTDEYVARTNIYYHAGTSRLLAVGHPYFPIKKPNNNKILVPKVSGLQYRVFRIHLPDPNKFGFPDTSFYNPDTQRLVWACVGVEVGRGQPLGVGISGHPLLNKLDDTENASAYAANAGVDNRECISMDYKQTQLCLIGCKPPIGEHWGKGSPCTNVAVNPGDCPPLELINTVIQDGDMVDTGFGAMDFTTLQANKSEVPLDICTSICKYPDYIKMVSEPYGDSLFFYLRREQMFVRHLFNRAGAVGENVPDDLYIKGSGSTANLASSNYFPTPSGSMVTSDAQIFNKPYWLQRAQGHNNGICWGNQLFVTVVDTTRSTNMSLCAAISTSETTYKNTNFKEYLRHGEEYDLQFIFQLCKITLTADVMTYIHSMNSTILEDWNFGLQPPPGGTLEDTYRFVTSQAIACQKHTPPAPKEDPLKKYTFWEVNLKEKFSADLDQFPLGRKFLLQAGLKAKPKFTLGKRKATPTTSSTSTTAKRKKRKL
Description: SPR, Biacore 3000, HPV-16 L1 amine-coupled on chip, polypeptide as analyte.

No end group written: not given here.

The Kd is a measure of binding affinity in units of concentration. As usually defined, the koff is the rate constant with which the complex falls apart.

For MGRFKRFRKKFKKLFKKLS [The polypeptide], in assay [1] (KD, Affinity constant, SPR, kinetic analysis, HPV-16 L1 protein), the Kd came to 0.782 nM. In addition, the kon in assay [1] (read-out: ka, Binding constant) was 2.35e+06 M⁻¹ s⁻¹.

With “HD6: human α-defensin secreted by human Paneth cells (AFTCHCRRSCYSTEYSYGTCTVMGINHRFCCL; ends and bridges not checked; cysteine pairing not given here; UniProt Q01524 69-100, looked up) [reference compound]”, the “Activity against HPV” value in assay [2] is “inactive”.

On to MGRFKRFRKKFKKLFKKLS (modifications not checked) [the polypeptide of the present invention (antimicrobial polypeptide, SEQ ID NO: 1)], for which, in assay [3], the Kd was determined as 0.782 nM, the koff worked out at 0.00184 s⁻¹ and the kon came to 2.35e+06 M⁻¹ s⁻¹.

B1: HD5: human α-defensin secreted by human Paneth cells (peptide, UniProt Q01523 20-94, looked up)
Defensin alpha 5: ESLQERADEATTQKQSGEDNQDLAISFAGNGLSALRTSGSQARATCYCRTGRCATRESLSGVCEISGRLYRLCCR
modifications: Defensin-5
notes: human α-defensin secreted by human Paneth cells
As to B1, the “Activity against HPV” value in assay [2] is on record as “inhibiting HPV activity”.
